Results as given in patent US20050191293A1 (Bristol-Myers Squibb, published 2005).
Where a chain is given by its changes, count along the chain named.

B1: 7C10 human monoclonal antibody (antibody, V domains shown)
VH: QVQLVESGGGVVQPGRSLRLSCAASGFTFSNSGMHWVRQAPGKGLEWVAVIDYDGIIQYYADSVKGRFTISRDNSKNTLYLQINSLRAEDTAVYYCATERGTHYYGSGSFDYWGQGTLVTVSS
VL: DIQMTQSPSSLSASVGDRVTITCRASQGISSWLAWYQQKPEKAPKSLIYAASSLQSGVPSRFSGSGSGTDFTLTISSLQPEDFATYYCQQYNSYPPTFGGGTKVEIK
notes: Human IgG with kappa light chain from a hybridoma of transgenic mice
B2: 6B10 human monoclonal antibody (antibody, V domains shown)
VH: QVQLVESGGGVVQPGRSLRLSCAASGFTFSNSAMHWVRQAPGKGLEWVALIPFDGYNKYYADSVKGRFTISRDNSKNTLYLQMNSLRAEDTAVYYCAREGGYTGYDGGFDYWGQGILVTVSS
VL: EIVLTQSPATLSLSPGERATLSCRASQSVSSYLAWYQQKPGQAPRLLIYDASNRATGIPARFSGSGSGTDFTLTISSLEPEDFAVYYCQQRSNWPPYTFGQGTKLEIK
notes: as for B1
B3: 8F6 human monoclonal antibody (antibody, V domains shown)
VH: QVQLVDSGGGVVQPGRSLRLSCAASGFTFNTYGMHWVRQAPGKGLEWVAVISYDGIIKHYADSVKGRFTITRDNSKNMVHLQMNSLRAEDTAVYYCARDSSSWYVYFDYWGQGTLVTVSS
VL: B2 VL with L33V, V85I, W94S, Y97W, L105V
notes: as for B1
B4: 10A12 human monoclonal antibody (antibody, V domains shown)
VH: QVQLVESGGGVVQPGRSLRLSCAASGFTFSNCGMHWVRQAPGKGLEWVALIGFDGINEYYADSVKGRFTISRDNSKNTLYLQMNSLRAEDTAVYYCARDWPEGYYNGMDVWGQGTTVTVSS
VL: not shown
notes: as for B1
B5: 10A12S (10A12 with cysteine 32 of VH CDR1 mutated to serine) (antibody, V domains shown)
VH: B4 VH with C32S
VL: not shown

Target: T1, human IP-10 (interferon gamma inducible protein 10) (human, UniProt P02778 22-98)
Assay: cell-based or functional assay

T1 sequence (P02778 other isoform, or with tags, fused parts or gaps limits assumed): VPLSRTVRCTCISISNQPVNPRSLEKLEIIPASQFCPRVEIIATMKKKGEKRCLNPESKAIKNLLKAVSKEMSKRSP

Binder	IC50 (nM) for 300.19 Cells: inhibition of IP-10-induced calcium flux in 300.19 cells transfected to express CXCR3 [nM]	IC50 (nM) for HPBL: inhibition of IP-10-induced calcium flux in anti-CD3 activated human PBLs that express CXCR3 [nM]
B1	0.77	8.15
B2	0.5	4.4
B3	0.3	6.27
B4	0.18	1.25
B5	0.08	2.31

Target: T1, human IP-10 (interferon gamma inducible …)
Assay: cell-based or functional assay
Remark: another data set of the same source

Binder	THP-1 IP-10 IC50: inhibition of migration of CXCR3-expressing 300.19 cells induced by native IP-10 in THP-1 supernatant, MIG blocked by anti-MIG [µg/mL]	rhIP-10 IC50: inhibition of migration of CXCR3-expressing 300.19 cells induced by 100 ng/ml recombinant human IP-10 [µg/mL]
B2	0.193	1.1
B3	0.173	0.355
B5	0.211	0.115

Target: T2, rhesus monkey IP-10 (rhesus monkey, UniProt Q8MIZ1 22-98)
T2 sequence: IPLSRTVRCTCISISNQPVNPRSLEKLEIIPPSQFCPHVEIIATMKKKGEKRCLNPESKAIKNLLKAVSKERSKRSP
Assay: cell-based or functional assay

Binder	rrmIP-10 IC50: inhibition of migration of CXCR3-expressing 300.19 cells induced by 100 ng/ml recombinant rhesus macaque IP-10 [µg/mL]
B2	0.149
B3	0.1
B5	15.1

Target: T1, human IP-10 (interferon gamma inducible …)
Assay: cell-based or functional assay
Remark: another data set of the same source

Binder	Expt. 1 IC50: inhibition of MS-CSF induced migration of CXCR3-expressing 300.19 cells, MIG neutralized by anti-MIG [µg/mL]	Expt. 2 IC50: inhibition of MS-CSF induced migration of CXCR3-expressing 300.19 cells, MIG neutralized by anti-MIG [µg/mL]
B5	0.562	0.577

Target: T3, human ITAC (interferon-inducible T cell alpha chemoattractant) (human, UniProt O14625 22-94)
T3 sequence: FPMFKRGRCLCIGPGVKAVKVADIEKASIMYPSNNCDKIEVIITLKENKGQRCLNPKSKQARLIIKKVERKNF
Assay: SPR (Biacore), antigen on CM5 chip, 25 C
Protocol: (§1) The flow was then stopped and dissociation was monitored for 5 minutes. The association and dissociation curves were fit to a Langmuir binding model using BIAevaluation software (Biacore AB).

Binder	binding result
B1	no binding (tested: 133 nM)
B3	no binding (tested: 133 nM)
B4	no binding (tested: 133 nM)
B5	no binding (tested: 133 nM)

Target: T1, human IP-10 (interferon gamma inducible …)
Assay: ELISA, plate coated with 1 ug/ml antigen
Protocol: (§2) The plates were washed with PBS/Tween and then incubated with a goat-anti-human IgG Fc polyclonal antibody conjugated with horseradish peroxidase (HRP) for 1 hour at room temperature. After washing, the plates were developed with ABTS substrate (Sigma, A-1888, 0.22 mg/ml) and analyzed by spectrophotometer at OD 415-495.

Binder	EC50 [µg/mL]
B2	0.03
B3	0.09
B4	0.04
B5	0.0049

Target: T2, rhesus monkey IP-10
Assay: ELISA, plate coated with 1 ug/ml antigen
Protocol: as §2

Binder	EC50 [µg/mL]
B2	0.045
B3	0.031
B4	0.08
B5	0.0156

Target: T4, human MIG (monokine induced by gamma interferon) (human, UniProt Q07325 23-125)
T4 construct: Bought (PeproTech 300-26; R&D Systems for the migration assay)
T4 sequence: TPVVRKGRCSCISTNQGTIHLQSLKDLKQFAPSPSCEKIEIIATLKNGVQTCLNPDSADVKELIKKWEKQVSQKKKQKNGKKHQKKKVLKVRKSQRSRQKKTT
Assay: ELISA, plate coated with 1 ug/ml antigen
Protocol: as §2

Binder	EC50 [µg/mL]	binding result
B2	0.02	–
B3	–	no binding
B4	0.18	–
B5	0.38	–

Target: T5, mouse IP-10 (mouse, UniProt P17515 22-98)
T5 construct: Bought (PeproTech 250-16)
T5 sequence: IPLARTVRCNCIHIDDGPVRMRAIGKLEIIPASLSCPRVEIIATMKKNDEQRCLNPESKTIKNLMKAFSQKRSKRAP
Assay: ELISA, plate coated with 1 ug/ml antigen
Protocol: as §2

Binder	binding result
B3	no binding
B4	no binding
B5	no binding

Target: T1, human IP-10 (interferon gamma inducible …)
Assay: SPR (Biacore), human IP-10 on CM5 chip, 25 C
Protocol: (§3) Binding was measured by flowing the antibody in HBS EP buffer (provided by Biacore AB) at concentrations from 33-267 nM at a flow rate of 40 μl/min. The antigen-antibody association kinetics was followed for 5 minutes and the dissociation kinetics was followed for 8 minutes. The association and dissociation curves were fit to a 1:1 Langmuir binding model using BIAevaluation software (Biacore AB). Data corresponding to the initial few dozen seconds for association and dissociation phases alone were considered for curve fitting to minimize the effect of avidity. The experiments were performed at both 25° C. and 37° C.

Binder	Kd [nM]	koff [s⁻¹]	kon [M⁻¹ s⁻¹]
B1	0.02	4e-07	17000
B2	1.78	0.000172	95000
B3	0.81	0.00019	233000
B4	0.53	2.02e-05	38300
B5	0.88	3.24e-05	36800

Target: T1, human IP-10 (interferon gamma inducible …)
Assay: SPR (Biacore), human IP-10 on CM5 chip, 37 C
Protocol: as §3

Binder	Kd [nM]	koff [s⁻¹]	kon [M⁻¹ s⁻¹]
B1	0.016	8e-07	52700
B2	2.54	0.000504	199000
B3	0.78	0.00027	347000
B4	0.34	3.81e-05	111000
B5	0.49	4.43e-05	91000

Target: T1, human IP-10 (interferon gamma inducible …)
Assay: SPR (Biacore), extension of dissociation curve, 25 C
Protocol: as §3
(§4) The values were determined by extension of the dissociation curves to get to the time required for the 50% reduction of the Y-axis of the dissociation sensogram.

Binder	Half-life (dissociation of half of the antibody-antigen complex) [h]
B2	1.12
B3	1.01
B4	9.53
B5	5.94

Target: T1, human IP-10 (interferon gamma inducible …)
Assay: SPR (Biacore), extension of dissociation curve, 37 C
Protocol: as §3, §4

Binder	Half-life (dissociation of half of the antibody-antigen complex) [h]
B2	0.38
B3	0.71
B4	5.05
B5	4.34

Target: T2, rhesus monkey IP-10
Assay: SPR (Biacore), antigen on CM5 chip, antibody 133 nM, 25 C
Protocol: as §1

Binder	Kd [nM]
B1	4.4
B2	2.01
B3	0.81
B4	0.71
B5	1.21

Target: T4, human MIG (monokine induced by gamma …)
Assay: as above
Protocol: as §1

Binder	Kd [nM]
B2	15.4
B4	161
B5	722

Target: T3, human ITAC (interferon-inducible T cell …)
Assay: as above
Protocol: as §1

Binder	Kd [nM]
B2	51.5

Target: T5, mouse IP-10
Assay: as above
Protocol: as §1

Binder	Kd [nM]
B1	464

Target: T1, human IP-10 (interferon gamma inducible …)
Assay: inhibition of 0.100 nM 125I-IP-10 binding to CXCR3-expressing 300.19 cells
Protocol: The cells were grown in RPMI media containing 10% FCS and G418 selection. Prior to use, the cells were washed twice with Hank's Balanced Salt Solution (HBSS) at 4° C. and adjusted to 4×10⁷ cells/ml. Glass fiber plates (Millipore MultiScreen®, Cat. #MAFBNOB50) were blocked with 200 μl of a 0.1% polyethyleneimine solution one day prior to the experiment. On the day of the study, the blocking buffer was aspirated by using a Millipore manifold. The plates were washed three times with 200 μl of binding buffer (50 mM HEPES, pH 7.2, 1 mM CaCl₂, 5 mM MgCl₂, 0.5% BSA). […] The plates were incubated on a plate shaker for 60 minutes at room temperature and washed three times with wash buffer (10 mM HEPES, pH 7.2, 0.5 M NaCl, 0.5% BSA) at a volume of 200 μl per wash. The plates were dried, 25 μl of scintillant was added and the plates were counted on a Wallac Microbeta Counter. Data were analyzed using Prism software and a KD was calculated.
Competition assays were run in a similar manner to the experiment described above. […] Lastly, 25 μl of cells at a density of 1×10⁶ cells per well were added and the plates were incubated on a plate shaker for 60 minutes at room temperature, washed and counted as described above. EC₅₀ values were calculated using Prism software. Kᵢ values (in nM) were determined using the formula: […]

Binder	Ki [nM]
B1	0.41
B2	0.3
B3	0.16
B4	0.09
B5	0.06
